# Source: article PMC9169696 (ACS applied materials & interfaces, 2021)
# Square brackets hold non-standard residues; d marks the D form. Ends that are not written are not given here.
# B1: HLT2 peptide gel (peptide)
# peptide: VLTKVKTKV[code p]PTKVEVKVLV-NH2
# Legend:
# [1] = molecular target: BSA fluorescein isothiocyanate conjugate (bovine, UniProt P02769 25-607, fluorescein isothiocyanate conjugate (sites not given)); test: light absorption and fluorescence imaging of the gel
# bovine serum albumin = bovine serum albumin (bovine, UniProt P02769 25-607); test: affinity purification with mass spectrometry
# HLT2 peptide gel = molecular target: B1; test: depletion from the supernatant
# Chain of bovine serum albumin (P02769 25-607): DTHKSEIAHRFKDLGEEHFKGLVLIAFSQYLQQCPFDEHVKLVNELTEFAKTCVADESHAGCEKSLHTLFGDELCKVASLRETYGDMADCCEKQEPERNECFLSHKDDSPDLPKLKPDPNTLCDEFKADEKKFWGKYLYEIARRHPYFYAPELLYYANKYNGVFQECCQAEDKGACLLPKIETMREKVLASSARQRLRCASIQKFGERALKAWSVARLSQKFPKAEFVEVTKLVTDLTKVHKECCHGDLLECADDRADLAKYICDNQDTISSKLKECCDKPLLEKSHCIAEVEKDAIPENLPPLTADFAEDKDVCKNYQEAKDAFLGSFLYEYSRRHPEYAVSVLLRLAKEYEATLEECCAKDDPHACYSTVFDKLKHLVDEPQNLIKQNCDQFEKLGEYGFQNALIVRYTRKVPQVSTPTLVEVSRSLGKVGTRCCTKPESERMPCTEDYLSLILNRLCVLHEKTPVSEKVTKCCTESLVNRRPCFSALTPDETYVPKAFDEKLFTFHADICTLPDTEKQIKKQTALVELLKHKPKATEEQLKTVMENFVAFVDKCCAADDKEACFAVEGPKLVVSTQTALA
# Chain of BSA fluorescein isothiocyanate conjugate (P02769 25-607): as above
Binder,binding result [1],binding result (bovine serum albumin),concentration adsorbed with respect to total gel volume (HLT2 peptide gel),percent of the added protein adsorbed (HLT2 peptide gel)
B1,binds,binds,,
"fluorescein-labeled Fet-A (natural protein, bovine, UniProt P12763 19-359, looked up, fluorescein (from NHS-fluorescein; sites not stated)) IPLDPVAGYKEPACDDPDTEQAALAAVDYINKHLPRGYKHTLNQIDSVKVWPRRPTGEVYDIEIDTLETTCHVLDPTPLANCSVRQQTQHAVEGDCDIHVLKQDGQFSVLFTKCDSSPDSAEDVRKLCPDCPLLAPLNDSRVVHAVEVALATFNAESNGSYLQLVEISRAQFVPLPVSVSVEFAVAATDCIAKEVVDPTKCNLLAEKQYGFCKGSVIQKALGGEDVRVTCTLFQTQPVIPQPQPDGAEAEAPSAVPDAAGPTPSAAGPPVASVVVGPSVVAVPLPLHRAHYDLRHTFSGVASVESSSGEAFHVGKTPIVGQPSIPGGPVRLCPGRIRYFKI",,,6.8 mg/mL,85%
"fluorescein-labeled VN (natural protein, human, UniProt P04004 20-478, looked up, fluorescein (from NHS-fluorescein; sites not stated)) DQESCKGRCTEGFNVDKKCQCDELCSYYQSCCTDYTAECKPQVTRGDVFTMPEDEYTVYDDGEEKNNATVHEQVGGPSLTSDLQAQSKGNPEQTPVLKPEEEAPAPEVGASKPEGIDSRPETLHPGRPQPPAEEELCSGKPFDAFTDLKNGSLFAFRGQYCYELDEKAVRPGYPKLIRDVWGIEGPIDAAFTRINCQGKTYLFKGSQYWRFEDGVLDPDYPRNISDGFDGIPDNVDAALALPAHSYSGRERVYFFKGKQYWEYQFQHQPSQEECEGSSLSAVFEHFAMMQRDSWEDIFELLFWGRTSAGTRQPQFISRDWHGVPGQVDAAMAGRIYISGMAPRPSLAKKQRFRHRNRKGYRSQRGHSRGRNQNSRRPSRATWLSLFSSEESNLGANNYDDYRMDWLVPATCEPIQSVFFFSGDKYYRVNLRTRRVDTVDPPYPRSIAQYWLGCPAPGHL",,,0.1 mg/mL,87%
